Reference: US20150274831A1

Tests used:
Assay in all cases: cell-based or functional assay
[1] = target: human mutant CSF-1R L301S Y969F, full-length, on cells (human) (UniProt P07333)
[2] = target: human wildtype CSF-1R (wt CSF-1R), full-length, on cells (human) (UniProt P07333)
[3] = target: CSF-1R on cynomolgous monocytes (native receptor of CD14-enriched peripheral blood monocytes) (cynomolgous)

IC50 CSF-1R Phosphorylation [2] | % inhibition at 20 µg/ml (mutant CSF-1R cells) [1] | Substance | Mutant CSF-1R IC30 [µg/ml] (cell viability, 3D culture, CellTiterGlo) [1] | Mutant CSF-1R IC50 [µg/ml] (cell viability, 3D culture, CellTiterGlo) [1] | wtCSF-1R IC30 [µg/ml] (cell viability, 3D culture, CellTiterGlo) [2] | wtCSF-1R IC50 [µg/ml] (cell viability, 3D culture, CellTiterGlo) [2] | % inhibition (of survival) = (100% - % survival) (CellTiterGlo; cynomolgous monocytes with 150 ng/ml huCSF-1; 5 µg/ml antibody) [3] | % survival (CellTiterGlo; cynomolgous monocytes with 150 ng/ml huCSF-1; 5 µg/ml antibody) [3]
1010 ng/mL |  | Anti CSF-1R SC 2-4A5 (Santa Cruz Biotechnology, US) (antibody) | 2.56 µg/mL | 10 µg/mL | 16.6 µg/mL | 10 µg/mL | 69% | 31%
 | 0% | goat polyclonal anti-CSF-1R antibody ab10676 (abcam) | > 20 µg/mL |  | 14.2 µg/mL |  |  | 
